In patent publication US20230301998A1 (SANFORD BURNHAM PREBYS MEDICAL DISCOVERY INSTITUTE, published 2023):

Columns and labels:
[1] = biological target: T1, Interferon-activable protein 204 (Mus musculus) (IFI204) (Mus musculus, UniProt P0DOV2 1-619); assay: Flag IP and immunoblot of transfected HEK293T lysates
T1 construct: also called IF204
T1 sequence: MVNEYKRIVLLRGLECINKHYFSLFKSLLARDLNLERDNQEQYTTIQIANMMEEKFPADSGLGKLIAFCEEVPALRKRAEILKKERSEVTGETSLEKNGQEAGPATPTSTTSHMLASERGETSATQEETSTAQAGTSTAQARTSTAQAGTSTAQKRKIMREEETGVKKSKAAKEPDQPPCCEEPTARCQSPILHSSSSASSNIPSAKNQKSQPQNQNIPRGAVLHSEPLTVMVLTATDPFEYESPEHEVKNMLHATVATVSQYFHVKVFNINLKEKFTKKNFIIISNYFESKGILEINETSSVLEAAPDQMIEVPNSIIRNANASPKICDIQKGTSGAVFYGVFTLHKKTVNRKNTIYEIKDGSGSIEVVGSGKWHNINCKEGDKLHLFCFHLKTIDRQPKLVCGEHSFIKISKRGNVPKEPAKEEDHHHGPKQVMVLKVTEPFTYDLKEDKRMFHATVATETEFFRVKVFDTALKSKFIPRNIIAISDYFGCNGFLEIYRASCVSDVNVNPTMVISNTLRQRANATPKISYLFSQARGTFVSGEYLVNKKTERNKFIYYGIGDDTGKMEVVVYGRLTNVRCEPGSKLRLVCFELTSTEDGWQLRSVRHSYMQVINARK

PFKFB2 = biological target: T2, PFKFB2 (human, UniProt O60825 2-505, limits assumed); assay: Flag IP of Flag-SHARPIN from WM115 lysate, on-bead tryptic digestion, LC/MS-MS
T2 construct: endogenous protein co-purified from WM115 lysate
Method: (§1) To identify SHARPIN-interacting proteins, WM115 cells were transfected with Flag-tagged SHARPIN or control empty plasmid. Cell lysates were prepared using 1% Triton X-100 buffer [50 mM Tris-HCl, pH7.4, 1% (v/v) Triton X-100, 150 mM NaCl, 1 mM EDTA, and protease and phosphatase inhibitor cocktails (Thermo Fisher Scientific)]. Lysates were pre-cleared with protein A/G beads (Santa Cruz Biotechnology) for 1 h at 4° C. followed by immunoprecipitation using FLAG-M2-agarose beads (Sigma-Aldrich) overnight at 4° C. Beads were then washed with lysis buffer and TBS containing lx protease inhibitor cocktail before being subjected to on-bead tryptic digestion followed by mass spectrometry. In Vitro Methylation Assay.

HSPA9 = biological target: T3, HSPA9 (human, UniProt P38646 47-679); assay: as above
T3 construct: endogenous protein co-purified from WM115 lysate
Method: as §1

DYNC1H1 = biological target: T4, DYNC1H1 (human, UniProt Q14204 2-4646); assay: as above
T4 construct: endogenous protein co-purified from WM115 lysate
Method: as §1

PMEL = biological target: T5, PMEL (human, UniProt P40967 25-661, limits assumed); assay: as above
T5 construct: endogenous protein co-purified from WM115 lysate
T5 sequence (looked up): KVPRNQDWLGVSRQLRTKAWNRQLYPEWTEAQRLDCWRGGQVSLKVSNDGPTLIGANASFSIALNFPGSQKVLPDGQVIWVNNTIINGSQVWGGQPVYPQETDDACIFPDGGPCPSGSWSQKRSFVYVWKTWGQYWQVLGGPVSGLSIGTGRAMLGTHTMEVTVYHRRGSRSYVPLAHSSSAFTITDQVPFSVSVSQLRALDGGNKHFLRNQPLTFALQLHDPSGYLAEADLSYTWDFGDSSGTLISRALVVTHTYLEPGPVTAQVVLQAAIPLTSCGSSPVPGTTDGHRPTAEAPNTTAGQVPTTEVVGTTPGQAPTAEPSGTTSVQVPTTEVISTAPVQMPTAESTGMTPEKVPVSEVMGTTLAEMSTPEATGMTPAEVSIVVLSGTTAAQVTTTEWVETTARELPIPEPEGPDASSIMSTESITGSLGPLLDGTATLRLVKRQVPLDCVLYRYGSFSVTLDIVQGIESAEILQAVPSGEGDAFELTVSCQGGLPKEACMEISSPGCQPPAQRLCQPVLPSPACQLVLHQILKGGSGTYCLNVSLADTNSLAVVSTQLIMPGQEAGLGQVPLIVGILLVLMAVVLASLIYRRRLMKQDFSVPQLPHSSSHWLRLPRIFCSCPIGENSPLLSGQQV
Method: as §1

[2] = biological target: T6, Gamma-interferon-inducible protein 16 (IFI16) (human, UniProt Q16666 1-785); assay: as above
T6 construct: Endogenous protein in WM115 / A375
T6 sequence: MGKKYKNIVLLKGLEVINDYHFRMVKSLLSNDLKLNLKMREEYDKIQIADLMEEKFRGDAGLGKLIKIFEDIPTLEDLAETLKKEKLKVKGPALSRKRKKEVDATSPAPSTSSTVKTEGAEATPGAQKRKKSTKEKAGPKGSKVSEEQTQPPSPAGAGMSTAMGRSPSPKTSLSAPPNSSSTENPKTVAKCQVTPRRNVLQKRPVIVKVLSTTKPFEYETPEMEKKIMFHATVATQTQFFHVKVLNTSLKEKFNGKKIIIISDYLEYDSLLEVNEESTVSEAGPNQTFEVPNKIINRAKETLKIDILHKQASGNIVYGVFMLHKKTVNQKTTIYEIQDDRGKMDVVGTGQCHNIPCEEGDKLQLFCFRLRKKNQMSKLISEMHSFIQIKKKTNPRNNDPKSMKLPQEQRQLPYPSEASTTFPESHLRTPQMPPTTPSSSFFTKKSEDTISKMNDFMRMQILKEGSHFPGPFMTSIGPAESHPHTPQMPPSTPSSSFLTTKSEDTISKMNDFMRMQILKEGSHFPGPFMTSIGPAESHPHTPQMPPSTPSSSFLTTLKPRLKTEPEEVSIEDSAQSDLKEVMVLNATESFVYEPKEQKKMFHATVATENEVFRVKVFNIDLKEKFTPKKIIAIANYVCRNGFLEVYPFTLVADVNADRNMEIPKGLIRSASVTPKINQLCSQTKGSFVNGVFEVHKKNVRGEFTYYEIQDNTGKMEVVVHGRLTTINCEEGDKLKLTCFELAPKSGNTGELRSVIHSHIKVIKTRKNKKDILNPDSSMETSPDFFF
Method: as §1

T3 sequence (P38646 47-679 limits assumed): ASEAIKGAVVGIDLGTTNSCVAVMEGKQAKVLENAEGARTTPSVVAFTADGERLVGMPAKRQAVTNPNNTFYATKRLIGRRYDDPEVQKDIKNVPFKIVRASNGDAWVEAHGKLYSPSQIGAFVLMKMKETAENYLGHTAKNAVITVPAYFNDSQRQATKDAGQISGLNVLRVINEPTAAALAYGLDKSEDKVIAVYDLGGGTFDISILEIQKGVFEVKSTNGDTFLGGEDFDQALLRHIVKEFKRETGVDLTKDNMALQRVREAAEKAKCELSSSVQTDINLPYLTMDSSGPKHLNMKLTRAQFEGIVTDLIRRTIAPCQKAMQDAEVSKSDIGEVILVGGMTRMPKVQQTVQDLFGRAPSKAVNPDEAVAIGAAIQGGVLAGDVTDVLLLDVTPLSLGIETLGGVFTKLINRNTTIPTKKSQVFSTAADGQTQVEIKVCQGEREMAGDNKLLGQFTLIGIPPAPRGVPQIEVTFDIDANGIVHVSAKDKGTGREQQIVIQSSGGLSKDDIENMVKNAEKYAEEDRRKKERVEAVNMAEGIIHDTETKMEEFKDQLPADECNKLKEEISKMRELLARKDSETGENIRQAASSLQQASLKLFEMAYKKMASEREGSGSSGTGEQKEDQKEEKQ
T2 sequence (O60825 2-505 limits assumed): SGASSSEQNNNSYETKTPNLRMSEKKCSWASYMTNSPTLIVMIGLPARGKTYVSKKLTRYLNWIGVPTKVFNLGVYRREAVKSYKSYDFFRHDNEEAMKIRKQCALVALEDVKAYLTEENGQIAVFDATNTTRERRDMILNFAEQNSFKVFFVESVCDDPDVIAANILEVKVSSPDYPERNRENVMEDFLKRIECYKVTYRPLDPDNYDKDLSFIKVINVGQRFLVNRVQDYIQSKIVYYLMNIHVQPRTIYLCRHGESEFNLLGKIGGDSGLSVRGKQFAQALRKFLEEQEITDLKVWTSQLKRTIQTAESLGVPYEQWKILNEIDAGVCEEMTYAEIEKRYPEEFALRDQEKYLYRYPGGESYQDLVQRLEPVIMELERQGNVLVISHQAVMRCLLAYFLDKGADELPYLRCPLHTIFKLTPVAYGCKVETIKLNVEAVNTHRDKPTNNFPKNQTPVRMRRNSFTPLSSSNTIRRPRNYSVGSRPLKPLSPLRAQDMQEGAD

binding result [1]: binds
binding result (PFKFB2): binds
binding result (HSPA9): binds
binding result (DYNC1H1): binds
binding result (PMEL): binds
binding result [2]: binds
B1: Flag-tagged SHARPIN (other, human, UniProt Q9H0F6 1-387, looked up)
chain: MAPPAGGAAAAASDLGSAAVLLAVHAAVRPLGAGPDAEAQLRRLQLSADPERPGRFRLELLGAGPGAVNLEWPLESVSYTIRGPTQHELQPPPGGPGTLSLHFLNPQEAQRWAVLVRGATVEGQNGSKSNSPPALGPEACPVSLPSPPEASTLKGPPPEADLPRSPGNLTEREELAGSLARAIAGGDEKGAAQVAAVLAQHRVALSVQLQEACFPPGPIRLQVTLEDAASAASAASSAHVALQVHPHCTVAALQEQVFSELGFPPAVQRWVIGRCLCVPERSLASYGVRQDGDPAFLYLLSAPREAPATGPSPQHPQKMDGELGRLFPPSLGLPPGPQPAASSLPSPLQPSWSCPSCTFINAPDRPGCEMCSTQRPCTWDPLAAAST
notes: also called Flag-SHARPIN; not shown: FLAG tag
